Test results taken from patent US20020127657A1.

Molecular target: GST-fusion of the truncated CD2 tail (CD2221-282) (human) (UniProt P06729)
Assay: NMR titration, estimate from line broadening in fast exchange

GST-fusion of the truncated CD2 tail (CD2221-282) (human), sequence (P06729 245-306): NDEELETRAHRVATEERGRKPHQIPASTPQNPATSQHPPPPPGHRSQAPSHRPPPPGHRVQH

koff: > 1000 s⁻¹
Substance: purified binding domain of CD2BP2 comprising amino acids 256-341 (His-tagged, NMR sample)
